# Patent US12122830 (ABL BIO, dated 2024)
# Assays:
# [1] = molecular target: T1, human ROR1 expressed on the cell surface (human, UniProt Q01973 30-937); assay: flow cytometry on 697 cells (ALL), C2E3 IgG at 10 µg/mL, MFI of anti-ROR1 / MFI of 2nd Ab
# T1 construct: whole, on cells; On JeKo-1 and Mino cells and other cancer cell lines (endogenous) and on transfected CHO and MC38 cells; also called cell surface-expressed ROR1; CHO-human ROR1
# Method: (§1) For the cell lines, the binding to ROR1 was analyzed with FACS (FACSCalibur, BD Biosciences) by using the anti-ROR1 antibody of the present invention.
# (§2) Specifically, after disassociating each cell line and washing in PBS, the number of cells was counted and set as 2 ×10^5 cells/200 µl PBS, and then the clone C2E3 among ROR1 monoclonal antibodies prepared in Example 3 was treated in 10 µg/mL, and it was reacted at 4° C. for 1 hour. After reaction, cells were washed in PBS, and then the FITC-labeled constant region (Fc)-specific antibody (Goat anti-human IgG FITC conjugate, Fc specific, Sigma, F9512, concentration: 2.0 mg/ml) was suspended in 2 µl/1 ×10^5 cells/200 µl PBS, and it was reacted at 4° C. for 1 hour. After reaction, cells were washed in PBS, it was analyzed using a FACSCalibur device. The negative control group was treated only with the FITC-labeled constant region (Fc)-specific antibody. To compare the expression degrees of ROR1 among the cancer cell lines, the value of the result for the peak shift in the experimental group treated with the ROR1 monoclonal antibody (C2E3) of the present invention was divided by the result for the peak shift in the control group (Mean Fluorescence Intensity Ratio MFI Ratio: MFI of anti-ROR1/MFI of 2nd Ab).
# [2] = molecular target: T1, human ROR1 expressed on the cell surface; assay: flow cytometry on HCC1937 cells (breast cancer), C2E3 IgG at 10 µg/mL, MFI of anti-ROR1 / MFI of 2nd Ab
# Method: as §1, §2
# [3] = molecular target: T1, human ROR1 expressed on the cell surface; assay: flow cytometry on BT474 cells (breast cancer), C2E3 IgG at 10 µg/mL, MFI of anti-ROR1 / MFI of 2nd Ab
# Method: as §1, §2
# [4] = molecular target: T1, human ROR1 expressed on the cell surface; assay: flow cytometry on SNU-16 cells (gastric cancer), C2E3 IgG at 10 µg/mL, MFI of anti-ROR1 / MFI of 2nd Ab
# Method: as §1, §2
# [5] = molecular target: T1, human ROR1 expressed on the cell surface; assay: flow cytometry on Mino cells (MCL), C2E3 IgG at 10 µg/mL, MFI of anti-ROR1 / MFI of 2nd Ab
# Method: as §1, §2
# [6] = molecular target: T1, human ROR1 expressed on the cell surface; assay: flow cytometry on Kasumi-2 cells (ALL), C2E3 IgG at 10 µg/mL, MFI of anti-ROR1 / MFI of 2nd Ab
# Method: as §1, §2
# [7] = molecular target: T1, human ROR1 expressed on the cell surface; assay: flow cytometry on BT20 cells (breast cancer), C2E3 IgG at 10 µg/mL, MFI of anti-ROR1 / MFI of 2nd Ab
# Method: as §1, §2
# [8] = molecular target: T1, human ROR1 expressed on the cell surface; assay: flow cytometry on JeKo-1 cells (MCL), C2E3 IgG at 10 µg/mL, MFI of anti-ROR1 / MFI of 2nd Ab
# Method: as §1, §2
# [9] = molecular target: T1, human ROR1 expressed on the cell surface; assay: flow cytometry on AGS cells (gastric cancer), C2E3 IgG at 10 µg/mL, MFI of anti-ROR1 / MFI of 2nd Ab
# Method: as §1, §2
# [10] = molecular target: T1, human ROR1 expressed on the cell surface; assay: flow cytometry on DLD-1 cells (colon cancer), C2E3 IgG at 10 µg/mL, MFI of anti-ROR1 / MFI of 2nd Ab
# Method: as §1, §2
# [11] = molecular target: T1, human ROR1 expressed on the cell surface; assay: flow cytometry on HCC1143 cells (breast cancer), C2E3 IgG at 10 µg/mL, MFI of anti-ROR1 / MFI of 2nd Ab
# Method: as §1, §2
# [12] = molecular target: T1, human ROR1 expressed on the cell surface; assay: flow cytometry on MDA-MB-231 cells (breast cancer), C2E3 IgG at 10 µg/mL, MFI of anti-ROR1 / MFI of 2nd Ab
# Method: as §1, §2
# T1 sequence (Q01973 30-937): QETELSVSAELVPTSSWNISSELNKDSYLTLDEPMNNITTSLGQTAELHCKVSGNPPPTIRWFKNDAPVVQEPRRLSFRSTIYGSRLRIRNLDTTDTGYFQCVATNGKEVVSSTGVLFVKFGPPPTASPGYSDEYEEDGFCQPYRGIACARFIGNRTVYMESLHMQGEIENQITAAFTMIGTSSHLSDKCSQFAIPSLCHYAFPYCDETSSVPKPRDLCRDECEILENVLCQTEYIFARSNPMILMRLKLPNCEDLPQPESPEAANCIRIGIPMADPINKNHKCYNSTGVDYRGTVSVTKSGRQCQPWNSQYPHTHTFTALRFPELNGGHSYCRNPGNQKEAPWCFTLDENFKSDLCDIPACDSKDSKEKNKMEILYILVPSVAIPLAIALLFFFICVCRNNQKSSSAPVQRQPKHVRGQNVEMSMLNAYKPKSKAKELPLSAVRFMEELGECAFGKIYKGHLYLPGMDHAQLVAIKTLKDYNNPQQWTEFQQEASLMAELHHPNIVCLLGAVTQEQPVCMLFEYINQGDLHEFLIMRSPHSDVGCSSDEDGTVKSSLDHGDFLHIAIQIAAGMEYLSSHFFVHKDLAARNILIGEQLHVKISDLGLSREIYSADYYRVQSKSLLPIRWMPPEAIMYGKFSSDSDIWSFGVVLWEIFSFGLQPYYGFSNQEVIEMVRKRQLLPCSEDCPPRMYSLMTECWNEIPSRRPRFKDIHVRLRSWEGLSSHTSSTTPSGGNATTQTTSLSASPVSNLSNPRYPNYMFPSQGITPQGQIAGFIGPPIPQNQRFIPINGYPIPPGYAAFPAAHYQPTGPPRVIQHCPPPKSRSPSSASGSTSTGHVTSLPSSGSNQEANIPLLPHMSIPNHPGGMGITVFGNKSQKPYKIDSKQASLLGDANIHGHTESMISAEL
binder,measurement,setting,value
"C2E3 anti-ROR1 IgG antibody (antibody, V domains shown) VH: EVQLLESGGGLVQPGGSLRLSCAASGFTFSNYAMSWVRQAPGKGLEWVSSISHNSGSTYYADSVKGRFTISRDNSKNTLYLQMNSLRAEDTAVYYCAKFISARKSLGRSYSNGMDVWGQGTLVTVSS VL: QSVLTQPPSASGTPGQRVTISCTGSSSNIGSNDVTWYQQLPGTAPKLLIYADSKRPSGVPDRFSGSKSGTSASLAISGLRSEDEADYYCGTWDYSLSGYVFGGGTKLTVLG",Mean Fold Ratio,[1],12
same,Mean Fold Ratio,[2],2.7
same,Mean Fold Ratio,[3],1.7
same,Mean Fold Ratio,[4],2.4
same,Mean Fold Ratio,[5],7.2
same,Mean Fold Ratio,[6],11.5
same,Mean Fold Ratio,[7],3
same,Mean Fold Ratio,[8],4
same,Mean Fold Ratio,[9],12.3
same,Mean Fold Ratio,[10],17.6
same,Mean Fold Ratio,[11],3.2
same,Mean Fold Ratio,[12],8.8
